According to the RNAGym collection of RNA variant scans (doi:10.1073/pnas.2313332121):

B1: TPR t1 (parent)
chain: GACCAAUCUGCCCUCAGAGCUCGAGAACAUCUUCGGAUGCAGAGGAGGCAGGCUUCGGUGGCGCGAUAGCGCCAACGUCCUCAACCUCCAAUGCAUCCCACCACAUGAUGAUGCCUGAAGAGCCUUGGUUUUUUG

Variants of: B1
Test: polymerase ribozyme fitness, log enrichment relative to wild type (log ratio); higher = more active; in vitro selection for triplet polymerase activity
Summary of the method: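 Fitness is a logarithmic measure of how a genotype enriched relative to the wild type, with replicate averages weighted by inverse variance. The logarithm uses base 2, and enrichment came from Illumina sequencing of input and output libraries. Those libraries were PCR-built, transcribed mutants of each subunit of a heterodimeric triplet polymerase ribozyme, passed through one triplicate in vitro selection round that included frozen incubation at −7 °C, gel excision of extended constructs and streptavidin-bead capture. Genotypes were kept only if they had ≥10 input reads and ≥1 read per output.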
In the case of GACCGAUCUGCCCUCAGAGCUCGAGAACAUCUUCGGAUGCAGAGGAGGCAGGCUUCGGUGGCGCGAUAGCGCCAACGUCCUCAAUCUCCAAUGCAUCCCACCACAUGAUGAUUCCUGAAGAUCCUUGGUUUUUUG, the “polymerase ribozyme fitness (log ratio)” value is reported as -3.92.
With GACCAAUCUGCCCUCAGAGCUCGAGAACAUCUUGGGAUGCAGAGGCGGCAGGCUUCGGUGGCGCGAUAGCGCCAACGUCCUCAACCUCCAAUGCAUCCCACCACAAGAUAAUGCCUGAAGAGCCUUGGUGAUUUG the “polymerase ribozyme fitness (log ratio)” value was -5.46.
In the case of GACCAAUCUGCCCUCAGAGCUCGAGAACAUCUUCGGAUGCAGAGGAGGCAGGCUUCGGAGGCGCGAUAGCGCCAACGUCCUCAACCACCAAUGCAUCCCACCACAUGAUGAUGCCUGAAGAGCCUUGGUUUUUUG, the “polymerase ribozyme fitness (log ratio)” value is reported as -0.298.
For GACCAACCUGCCCUCAGAGCUCGAGAACAUCUUCGGAUGCAGAGGAGGCAGGCUUCGGUGACGCGAUAGCGCCAACGUCCGCAACCUCCAAUGCAUCCCACCACAUGAUGAUGCCGGAAGAGCAUUGGUUUUUUG, the “polymerase ribozyme fitness (log ratio)” value was -2.26.
With GACCAAUCUGCCCUCUAAGCUCGAGAACAUCUUCGGAUGCAGAGGAGGCAGGCUUCGGUGGCGCGAUAGCGCCAACGUCCUCAACCUCCAAUACAUCCCACCACAUGAUGAUGCCUGAAGAGCCUUGGUUUUUUG the “polymerase ribozyme fitness (log ratio)” value was -4.25.
With GACCAAUCUGCCCUCAGAGCUCGAGAACAUCUUCGGAUGCAGAGGAGGCAGGCUUCGGUGGCGCGAUAGCGCCAACGUCCUCAACCUCCAAUGCAUCCCACCACAUGAUAAUGCCUGGAGAGCCUUGGUUUUUUG the “polymerase ribozyme fitness (log ratio)” value was -1.12.
With GACCAAACUGCCCUCAGAGCUCGAGAACAUCUUCGGAUGCAGAGGAGGCAGGCUUCGGUGGCGAGAUAGCGCCAACGUCCUCAACCUCCAAUGCAUCCCACCACAUGAUGAUGCCUGAAGAGCCUUGGUUUUUUG the “polymerase ribozyme fitness (log ratio)” value was -4.63.
With GACCAAUCUGCCCUCAGAGCUCGAGAACAUCUUCGGAUGCAGAGGAGGCAGGCUUCGGUGGCGCGAUAACGCCAACGUCCUCAACCUCCAAUGCAUCCCACCACAUGAUGAUGCCGGAAGAGCCUUGGUUUUUUG the “polymerase ribozyme fitness (log ratio)” value was -4.55.
With GAACCAUCUGCCCUCAGAGCUCGAGAACAUCUUCGGAUGCAGAGGAGACAGGCUUCGGUGGCGCGAUAGCGCCAACGUCCUCAACCUCCAAUGCAUCCCAACACAUGAUGAUGCCUGAAGAACCUUGGUUUUUUG the “polymerase ribozyme fitness (log ratio)” value was -1.86.
In the case of GACCAAUCUGCCUUCAGAGCUGGAGCACAUCUUCGGUUGCGGAGGAGGCGGGCUUCGGUGGCGCGAUAGCGCCAACGUCCUCAACCUCCAAUGCAUCCCACCACAUGAUGAUGCUUGAAGAGCCUUGGUUUUUUG, the “polymerase ribozyme fitness (log ratio)” value is reported as -3.21.
With GACCAAUCUGCCCUCAGAGCUCGAGAACAUCUUCGGAUGCAGAGGAGGCAGGCUUCGGUGGCGCGAUAGCACCAACGUCCUCUACCUCCAAUGCAUCCCACCACAUGAUGAUGCUUGAAGAGGCUUGGUUUUUUU the “polymerase ribozyme fitness (log ratio)” value was -4.34.
In the case of GACCAAUCUGCCCUCAGAGGUCGAGAACAUCUUCUGAUGCAGAGGAGGCAGGCUUCGGUGGCGCGAUAGCGCCAACGUCCUCAACCUCCAAUGCCUCCCACCACAUGAUGAUGCCUUAAGAGCCUUGGUUUUUUG, the “polymerase ribozyme fitness (log ratio)” value is reported as -4.02.
With GACUAAUCUGCCCUCAGAGCUCGAGAACAUCUUAGGAUGCAGAGGAGGCAGCCUUCGGUGGCGCGAUAGCGCCAACGUCCUCAACCUCCAAUGCAUCCAACUACACGAUGAUGCCUGAAGAGCCUUGGUUUUUUG the “polymerase ribozyme fitness (log ratio)” value was -6.
With GACCAAUCUGCCCUCAGAGCUCGAGAACAUCUUCGGAUGCAGAGGAGGCAGGCUUCGGUGGCUCGAUAGCGCCAACCUCCUCAACGUCCAAUGCAUCCCACCACAUGAUGAUGCCUGAAGAGCCUUGGUUUUUUG the “polymerase ribozyme fitness (log ratio)” value was -4.32.
With GACCAAUCUGCCGUCAGAGCUCGAGAACAUCUUCGGAUGCAGAGGAGGCAGUCUUCGGUAGCGCGAUAGCGCCAACGUCCUCAACCUCCAAUGCAUCCCACCAUAUGAUGAUGCGUGAAGCGCCUUGGUUUUUUG the “polymerase ribozyme fitness (log ratio)” value was -3.16.
For GACCAAUCUGCCCUCAGAGCUCGAGAACAUCUUCGGAUGCAGAGGAGGCAGGCUUCGGUGGCGCGAUAGCGCCAACGUACUCAACCUCCAAUGCAUCCCACCACAUGAUGAUGCAUGAAGAGCCUUCGUUUUUUG, the “polymerase ribozyme fitness (log ratio)” value was -1.07.
In the case of GACCAAUCUGCCCUCAGAGCUCGAGAACGUCUUCGGAUGCAGAGGAGGCAGGCUUCGGUGGCGCGAUAGCGCCAACGUGCUCAACCUCCAAUGCAUCCCACCACAUGAUGAUGCCUGAAGAGCCUUGGUUUUUUG, the “polymerase ribozyme fitness (log ratio)” value is reported as -2.5.
In the case of GACCAAUCUGCCCUCAGAGCUCGAGAACAUCUUGGGAUACAGAGGAGGCAGGCUUAGGUGGCGCGAUAUCGCCAACGUACUCAACCUCCAAUGCAUCCCACCUGAUGAUAAUGCGUGAAGAGCCUUGGUUUUUUG, the “polymerase ribozyme fitness (log ratio)” value is reported as -7.05.
In the case of GACCAAUCUGCCCUCAGAGCUCGAGAACAUCUUCGGAUGCAGAGGAGGCAGGCUUCGGAGGCGCGAUAGUGCCAACGUCCUCAACCUCCAAUGCAUCCCACCACAUGAUGAUGCCUGAAGAGCCUUGGUUUUUUG, the “polymerase ribozyme fitness (log ratio)” value is reported as -0.265.
In the case of GACCAAUCUGCGCUCAGAGCUCGAGAACAUCUUCGGAUGCAGAGGGGGCAGGCUUCGGUGGCACGAUAGCGCCAACGUCCUCAACCUCCAAUGCAUCCCACCACAUGAUGAUGCGUGAAGAGCCUUGGUUUUUUG, the “polymerase ribozyme fitness (log ratio)” value is reported as -6.03.
In the case of GACCAAUCUGCCCUCAGAGCUUGAGAACAUCUUCGGAUGCAGAGGAGGCAAGCUUCGGUGGCGCGAUAGCGCCAACGUCCUCAACCUCCAAUGCAUCCCACCACAUGAUGAUGCCUGAAGAGCCUUGGUUUUUUG, the “polymerase ribozyme fitness (log ratio)” value is reported as -4.81.
For GACCAAUCUGCCCUCAGAGCUCGAGAACAUCUUCGGAUGCAGUGGAGGCAGGCUUCGGUGGCGCGAUAGCGCCAACGUCCUCAACCACCAAUGCAUCCCACCACAUGAUAAUGCCUGAAGAGCCUUGGUUUUUUG, the “polymerase ribozyme fitness (log ratio)” value was -4.16.
With GACCAAUCUGCCCUCAGAGCUCGAGAACAUCUUCGGAUGCUGAGGAGGCAGGCUUCGGUGGCGCGAUAGCGCCAACGUCCUCAACCUCCAAUGCAUCCCACCACAUGAUGAUGCCUGAAGAGCCUUGGUCUUUUG the “polymerase ribozyme fitness (log ratio)” value was -1.35.
For GACCAAUCUGCCCUCAGAGCUUGAGAUCAUCUUCGGAUGCAGAGCAGGCAGGCGUGGGUGGCCCGAUAGCGCCAACGUCCUCAACCUCCAAUGCAUCCCACCACAUGAUGAUGCCUGAAGUGCCUUGGUUUUUUG, the “polymerase ribozyme fitness (log ratio)” value was -5.28.
In the case of GACCAAUCUGCCCUCAGAGCUAGAGAACAUCUUCGGAUGCAGAGGAGGCAGGCUUCGGUGGCGCGAUAGCGCCGACGUCCUCAACCUCCAAUGCAUUCCACCACAUGAUGAUGCCUGAAGAGCCUUGGUUUUUUG, the “polymerase ribozyme fitness (log ratio)” value is reported as -4.56.
With GAUCAAUCUGCUCUCAGAGCUCGAGAACAUCUUCGGAUGCAGAGGGGGCGGGCUUCGGUGGCGCGAUAGCGCCAACGUCCUCAACCUCCAAUGCAUCCCAACAUAUGAUGAUGCCUGAAGAGCCUUGGUUUUUUG the “polymerase ribozyme fitness (log ratio)” value was -0.987.
With GACCAAUCUGCCCUCAGAGCUCGAGAACAUCUUCGGAUACAUAGGAGGCAGGCUUCGGUGGCGCGAUAGCGACAACGUCCUCAACCUCCAAUGCAUCCCACCACAUGAUGAUGCCUGAAGAGCCUUGGUUUUUUG the “polymerase ribozyme fitness (log ratio)” value was -1.57.
For GACCAAUCUGCCCUCAGAGCUCGAGAACAUCUUCGGUUGCAGAGGAGGCAGGCUUCGGUGGCGCGAUAGCGCCAACGUCCUCAACCUCCAAUGCAGCCCACCACAUGAUGAUGCCUGAAGAGCCUUGGUUUUUUG, the “polymerase ribozyme fitness (log ratio)” value was -0.312.
In the case of GACCAAUCUGCCCUCAGAGCUCGAGAACAUCUCCGGAUGCAGAGGAGGCAGGCUUCGGUGGCGCGAUAGCGCCAACGUCCUCAACCUCCAAUGCAUCCGACCACAUGAAGAUGCCUGAAGAGCCUUGGUUUUUUG, the “polymerase ribozyme fitness (log ratio)” value is reported as -7.26.
In the case of GACCAAUCUGCCCUCAGAGCUCGAGAACAUCUUCGGCUGCAGAAGAGGCAGGAUUCGGUGGCCCGAUAGCGCCAACGUCCUCAACCUCCAAUGCAUCCCACCACAUGAUGAUGCCUGAAGAGCAUUGGUUUUUUG, the “polymerase ribozyme fitness (log ratio)” value is reported as -3.21.
With GACCAAUCUGCCCUCAGAGCUCGAGAACAUCUUCGGAUGCAGAGGAGGCAGGCUUCGGUGGCGCGAUAGCGCCAACGUCCUCAACCUCCAAUGCAUCCCACCACAUUAUGAUGUCUGAAGAGCCUUGGUUUUUUG the “polymerase ribozyme fitness (log ratio)” value was -3.8.
With GACCAAUUUGCCCUCAGAGCUCGAGAACAUCUUCGGAUGCAGAGGAGGCAGGCUUCGGUGGCGCGAUAGGGCCAACGUCCUCAACCUCCAAUGCAUCCCACCACAUGAUGAUGCCUGAAGAGCCUUGGUUUUUUG the “polymerase ribozyme fitness (log ratio)” value was -1.58.
For GACCAAUCUGCCCUCAGAGCUCGAGAACAUCUUCGGAUGCAGAGGAGGCAGACUUCGGUGGCGCGAUAGCGCCAACGUCCUCAACCUCCGAUUCAUCCCACCACAUGAUGACGCCUGACGAGCCUUGGUUUUUUG, the “polymerase ribozyme fitness (log ratio)” value was -1.55.
In the case of GACCAAUCUGCCCUCAGAGCUCGAGAACAUCUUCGGAUGCAGAGGAGGCAGGCUUCGGUGGCGCGAUAGCGCCAACGUCCGCAACCUCCAAUGCAUCCCACCACAUGAUGAUGCCUGAAGAGCCUUGGUUAUUUG, the “polymerase ribozyme fitness (log ratio)” value is reported as -3.6.
For GACCAAUCUGCCCUCAGAGCUCGAGAACAUCUUCGGAUGCAGAGGAGGCAGGCUUCGGAGGCGCGAUAGCGCCAACUUCCUCAACCUCCAAUGCAUCCCACCACAUGAUGAUGCCUGAAGAGCCUUGGUGUUUUG, the “polymerase ribozyme fitness (log ratio)” value was -1.24.
For GACCAAUCUGCCCUCAGAGCUCGAGAACAUCUUCGGAUGCAGAGGAGGCAGGUUUCGGUGGCCCGAUAGCGCCAACGUCCUCAACCUCCAAUGCAUCCCACCACAUGAUGAUGCCUGAAGAGCCUUGGUUUUUUG, the “polymerase ribozyme fitness (log ratio)” value was -2.11.
With GACCAAUCUGCCCUCAUAGCUCGAGAACAUCUUCGGAUGCAGAGGAGGCAGGCUUCGGUGGCGCGAUAGCGCCAACGUCCUCAACCUCCAAUGCAUCCCACCACAUGAUGAUGCCUGAAGAGACUUGGUUUUUUG the “polymerase ribozyme fitness (log ratio)” value was -1.2.
With GACCAAUCUGCCCUCAGAGCUCGAGAACGUCAUCGGAUGCAGAGGAGGCAGGCUCCGGUGGCGCGAUAGCGCCAACGUCCUCAACCUCCAAUGCAUCCCACCACAUGAUGAUGCCUGAAGAGCCUUGGUUUUUUG the “polymerase ribozyme fitness (log ratio)” value was -5.1.
For GACCAAUCUGCCCUCAGAGCUCGAGAACAUCUUCGGAUGCUGAGGAGGCAGGCUUCGGUGGCGCGAUAGCGCCAACGUCCUCAACCUCCAAUGCAUCCCACCACAUGAUGAUGCCUGAAUAGCCUUGGUUUUUUG, the “polymerase ribozyme fitness (log ratio)” value was -1.11.
With GACCAAUCUGCCCUCAGAGCUCGAGAACAUCUUCGGAUGCAGAGGAGGCAGGCUUCGGUGGCGCGAUAGCGCCAACGUCCUCAACCUCCAAUGCAUCCCACCACAUGAUUAUGCCUGAAGAGUCUUGGUUUUUUG the “polymerase ribozyme fitness (log ratio)” value was -1.39.
With GACCAAUGUGCCCUCAGAGCUCGAGAACAUCUUCGGAUGAAGAGGAGGCAGGCUUCGGUGGCGCGAUAGCGCCAACGUCCUCAACCUCCAAUGCAUCCCACCACAUGAUGAUGCCUGAAGAGCCUUGGUUUUUUG the “polymerase ribozyme fitness (log ratio)” value was -1.11.
In the case of GACCAAUCUGCCCUCAGAGCGCGAGAACAUCUUCGGAUGCAGAGGAGGCAGGCUUCGGUGGCGCGGUAGCGCAAACGUCCUCAACCUCCAAUGAAUCCCACCACAUGAUGAUGCCUGAAGAGCCUUGGUUUUUUG, the “polymerase ribozyme fitness (log ratio)” value is reported as -4.63.
